The term Ki denotes the equilibrium dissociation constant of an inhibitor or competing ligand from its target.

In the assay the target is T1, AT4 receptor (Cavia porcellus, UniProt H0VNM7).
T1 sequence (H0VNM7 1-1025): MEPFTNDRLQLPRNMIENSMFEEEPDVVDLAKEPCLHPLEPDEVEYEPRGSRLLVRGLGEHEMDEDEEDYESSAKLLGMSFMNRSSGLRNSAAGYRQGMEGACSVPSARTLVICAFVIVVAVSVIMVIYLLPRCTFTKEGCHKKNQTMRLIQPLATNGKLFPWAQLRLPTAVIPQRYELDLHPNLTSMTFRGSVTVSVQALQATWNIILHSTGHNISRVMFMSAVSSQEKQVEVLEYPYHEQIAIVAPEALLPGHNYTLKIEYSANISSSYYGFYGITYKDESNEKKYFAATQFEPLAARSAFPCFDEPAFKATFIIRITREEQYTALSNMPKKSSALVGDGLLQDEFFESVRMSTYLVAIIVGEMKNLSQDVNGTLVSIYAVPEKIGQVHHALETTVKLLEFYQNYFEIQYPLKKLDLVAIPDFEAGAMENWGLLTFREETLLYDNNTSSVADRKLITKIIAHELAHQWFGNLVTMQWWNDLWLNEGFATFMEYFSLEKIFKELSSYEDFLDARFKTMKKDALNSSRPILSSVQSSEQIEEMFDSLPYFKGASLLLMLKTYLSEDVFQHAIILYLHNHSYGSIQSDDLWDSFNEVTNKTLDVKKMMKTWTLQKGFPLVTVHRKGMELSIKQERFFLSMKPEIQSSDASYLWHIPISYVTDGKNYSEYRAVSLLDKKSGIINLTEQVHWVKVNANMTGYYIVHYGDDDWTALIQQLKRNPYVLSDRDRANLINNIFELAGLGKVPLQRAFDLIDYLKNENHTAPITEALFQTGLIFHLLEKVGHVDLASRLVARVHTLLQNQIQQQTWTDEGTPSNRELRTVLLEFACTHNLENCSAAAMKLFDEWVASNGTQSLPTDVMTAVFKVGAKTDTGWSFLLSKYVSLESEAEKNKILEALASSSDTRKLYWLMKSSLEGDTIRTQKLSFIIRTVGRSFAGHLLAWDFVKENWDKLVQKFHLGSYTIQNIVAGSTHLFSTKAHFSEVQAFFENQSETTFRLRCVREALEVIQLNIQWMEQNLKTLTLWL
The experiment in a line: 125I-AIV binding and competition, guinea pig hippocampus membranes. Particulars: competition of 0.6 nM 125I-AIV.

“Asp1 Arg2 Val3 Tyr4 Ile5 His6 Pro7 Phe8 (DRVYIHPF) [AII]”: the Ki was greater than 1 µM.
